The values below come from patent US20090175796A1 (AGENSYS, published 2009).

Substitutions are numbered along the chain they refer to.

First the molecules themselves.
T1: 24P4C12 protein (human) (human, UniProt Q53GD3 1-710)
T1 construct: whole, on cells; also called SLC44A4; CTL4
T1 sequence (looked up): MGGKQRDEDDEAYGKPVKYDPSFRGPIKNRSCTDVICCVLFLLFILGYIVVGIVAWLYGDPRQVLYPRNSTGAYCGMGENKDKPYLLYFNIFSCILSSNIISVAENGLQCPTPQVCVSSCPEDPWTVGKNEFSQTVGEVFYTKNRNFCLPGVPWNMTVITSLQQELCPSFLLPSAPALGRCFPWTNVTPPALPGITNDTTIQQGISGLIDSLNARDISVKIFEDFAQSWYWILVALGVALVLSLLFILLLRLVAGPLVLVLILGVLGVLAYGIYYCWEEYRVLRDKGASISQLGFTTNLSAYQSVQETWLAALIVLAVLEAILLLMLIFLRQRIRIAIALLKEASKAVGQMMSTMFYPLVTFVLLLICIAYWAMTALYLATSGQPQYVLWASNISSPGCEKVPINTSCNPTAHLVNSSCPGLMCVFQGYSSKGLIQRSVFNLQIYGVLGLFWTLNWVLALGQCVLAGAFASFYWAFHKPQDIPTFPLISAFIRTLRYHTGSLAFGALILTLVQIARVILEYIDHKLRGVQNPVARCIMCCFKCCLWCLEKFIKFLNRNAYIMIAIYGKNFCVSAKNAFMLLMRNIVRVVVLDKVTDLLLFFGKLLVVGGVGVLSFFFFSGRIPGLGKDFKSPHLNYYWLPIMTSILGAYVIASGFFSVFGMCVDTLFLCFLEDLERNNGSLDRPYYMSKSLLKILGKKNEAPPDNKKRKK

B1: Ha5-7be20.1 (antibody, V domains shown)
VH: QVQLQESGPGLVKPSETLSLTCTVSGGSISSYYWSWIRQPPGKGLEWIGYIYYSGSTNYNPSLKSRVTISVDTSKNQFSLKLSSVTAADTAVYYCARGYYYGSGSYGLDVWGQGTTVTVSS
VL: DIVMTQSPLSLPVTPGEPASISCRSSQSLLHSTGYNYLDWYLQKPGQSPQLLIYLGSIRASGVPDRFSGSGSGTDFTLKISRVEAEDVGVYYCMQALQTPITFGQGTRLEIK
B2: Ha5-7be31.1 (antibody, V domains shown)
VH: B1 VH with S103A, L108M
VL: DIVMTQSPLSLPVTPGEPASISCRSSQSLLHSTGFNYLDWYLQKPGQSPQLLIYLGSIRASGVPDRFSGSGSGTDFTLKISRVETEDVGVYYCMQTLQTPITFGQGTRLEIK
notes: copies: 2 + 2
B3: Ha5-8ac4.1 (antibody, V domains shown)
VH: QVQLQESGPGLVKPSETLSLTCTVSGGSISRYYWSWIRQPAGKGLERIGRIYTSGSTDYNPSLKSRVTMSVDTSKNQFSLKLRSVTAADTAVYYCARDLYSNGYWYFDLWGRGTLVTVSS
VL: QSVLTQPPSVSGAPGQRVTISCTGSSSNIGAGYDVHWYQQLPGTAPKLLIYGNSNRPSGVPDRFSGSKSGTSASLAITGLQAEDEADYYCQSYDSSLSGVVFGGGTKLTVL
notes: also called Ha5-8acd4.1
B4: Ha5-1(5)1 (antibody, V domains shown)
VH: QVQLVESGGGVVQPGRSLRLSCGASGFTFSSYGMHWVRQAPGKGLEWVAVMSYDGSKKYYTDSVKGRFTISRDNSKNTLYLQMNSLRVEDTAVYYCARDGGDYVRYYYYGMDVWGQGTTVTVSS
VL: DIQMTQSPSSLSASVGDRVTITCRARQGITYHLAWYQQRPGKVPKLLIYDTSSLQSGVPSRFSGSGSGTDFTLTISSLQPEDVATYYCQRFNSAPLTFGGGTKVEIK
notes: also called HA5-1(5)1.1
B5: Ha5-1(5)2.1 (antibody, V domains shown)
VH: B4 VH with G23A, Y59F, V88A, Y107H
VL: DIQMTQSPSTLSASIGDRVTITCRASQGISYYLAWYQQKPGKIPKLLIYDTSSLQSGVPSRFSGSRSGTDLSLTISSLQPEDVATYYCQRYDSAPLTFGGGTKVEIK
B6: Ha5-7acd7.1.1 (antibody, V domains shown)
VH: QVQLQESGPGLVKPSETLSLTCTVSGGSVSSGGYYWSWIRQPPGKGLEWIGYIYYSGGTNYNPSLKSRVTISVDTSKNQFSLKLTSVTAADTAVYYCARESGYCTNVACFPDAFDIWGQGTMVTVSS
VL: B2 VL with I2V, L9F, T33N, Y37F, T85A, T96A, I101L, Q105G, L109V
notes: copies: 2 + 2
B7: Ha5-7acd2.1 (antibody, V domains shown)
VH: QVQLQESGPGLVKPSETLSLTCTVSGGSISSYYWSWIRQPPGKGLEWIGYIYYSGSTNYNPSLKSRVTISVDTSKNQFSLKLSSVTAADTAVYYCANTYYYGSGYGMDVWGQGTTVTVSS
VL: DIVMTQSPLSLPVTPGEPASISCRSSQSLLHSTGHNYLDWYLQKPGQSPQLLIYLGSIRASGVPDRFSGSGSGTDFTLKISRVEAEDVGVYYCMQALQTITFGQGTRLEIK
B8: Ha5-7acd19.1 (antibody, V domains shown)
VH: B7 VH with Y50F, S54T
VL: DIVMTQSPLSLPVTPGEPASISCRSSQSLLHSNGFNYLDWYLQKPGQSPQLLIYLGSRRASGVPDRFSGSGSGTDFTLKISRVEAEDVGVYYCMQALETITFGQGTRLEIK
modifications: Labelled with Alexa Fluor 488 dye in the FIG. 14 experiment; the site is not stated and the letters do not carry it.
notes: copies: 2 + 2
B9: Ha5-3(3,5)37.1 (antibody, V domains shown)
VH: QVQLQESGPGLVKPSETLSLTCTVSGGSISSYYWSWIRQPPGKGLEWIGYIYYSGSTNYNPSLKSRVTISVDTSKNQFSLKLNSVTAADTAVYYCARGYYYGSESPYGMDVWGQGTTVTVSS
VL: DIVMTQSPLSLPVTPGEPASISCRSSQSLLHSNGHNYLDWYLQKPGQSPHLLIYLGSNRDSGVPDRFSGSGSGTDFTLKISRVEAEDVGVYYCMQALQIPCSFGQGTKLEIK
B10: Ha5-7acd10.1 (antibody, V domains shown)
VH: QVQLVESGGGVVQPGRSLRLSCAASGFTFSSYGMHWVRQAPGKGLEWVAVIWYDGSNKYYADSVKGRFTISRDNSKNTLYLQMNSLRAEDTAVYYCARDRYSGYDYYYYYGMDVWGQGTTVTVSS
VL: DIQMTQSPSSLSASVGDRVTITCRASQGIYNYLAWFQQKPGKAPKSLIYAASSLHSGVPSKFSGGGSGTDFTLTISSLQPEDFATYYCQQYTIYPFTFGPGTKVDIK
notes: copies: 2 + 2
B11: Ha5-11b1.1 (antibody, V domains shown)
VH: B10 VH with Y32H, R100Q, Y106L
VL: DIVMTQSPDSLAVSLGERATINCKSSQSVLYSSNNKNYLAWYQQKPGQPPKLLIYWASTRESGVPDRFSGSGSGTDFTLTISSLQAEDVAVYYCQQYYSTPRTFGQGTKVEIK
B12: Ha5-7acd20.1.1 (antibody, V domains shown)
VH: B10 VH with S56R, A61V, Y104S
VL: B10 VL with H55Q, G65S, D70V, I93V, I106F
B13: Ha5-7acd3.1 (antibody, V domains shown)
VH: B10 VH with A61T, Y107F
VL: B10 VL with K45R, G65S
B14: Ha5-3(1,4)7.1 (antibody, V domains shown)
VH: B10 VH with D105G
VL: B10 VL with G28D, Y30S, G65S
modifications: Labelled with Alexa Fluor 488 in the FIG. 14 experiment. The site is not stated and the letters do not carry it.
B15: Ha5-7acd4.1 (antibody, V domains shown)
VH: B10 VH
VL: B10 VL with G28V, A50G, G65S, D70E, T97S
B16: Ha5-7acd16.1 (antibody, V domains shown)
VH: B10 VH with Y32H, R100A
VL: B10 VL with N31T, A50G, H55Q, G65S, S76T, T97S
notes: also called HA5-acd16.1; copies: 2 + 2

For the test, the target named is T1, 24P4C12 protein (human). Briefly: FACS saturation equilibrium binding on LNCaP cells.
Procedure: The affinity to LNCaP cells was determined by FACS using saturation equilibrium binding assay. […] At the end of incubation, the cells were washed with FACS Buffer and incubated with 100 ul of detection antibody (anti-hIgG-PE) for 45 minutes at 4° C., the cells were then washed with FACS Buffer, fixed with 2% Formaldehyde and analyzed using FACScan. FACS data were analyzed using CellQuest Pro software to acquire histogram and Mean Fluoresces Intensity (MFI) values of each point. The MFI values were used to calculate the binding affinity using non-linear regression using Prism4 software (Graphpad Software Inc. San Diego Calif.).
As for B1, the Kd (as a rule, the concentration at which binding is half-saturated) came out at 3.2 nM.
Consider B2, for which binding was characterised by a dissociation constant (Kd) of 4.15 nM. The Kd values of the last two molecules are within 1.5-fold of each other.
Then B3, with 0.07 nM; and B4, with 4.1 nM.
Then B5, with 2.75 nM; and B6, with 1.85 nM.
The molecule B7 displayed a Kd of 1.95 nM.
Take B8: binding was characterised by a dissociation constant (Kd) of 0.19 nM.
Then B9, with 0.45 nM.
Turning to B10, the affinity, expressed as Kd, was 1.26 nM. Against the preceding molecule, the Kd is about 2.8-fold higher.
Molecule B11 returned a Kd of 3.4 nM.
B12 yielded a Kd of 1.1 nM.
As to B13, the Kd is 4.4 nM.
As to B14, the Kd is 5.5 nM.
Then B15, with 0.99 nM; and B16, with 0.7 nM.
